According to publication PMC3681689:

Key:
[1] = target: monothiol glutaredoxin 5 (Grx5) (S. cerevisiae) (UniProt Q02784); experiment: co-IP
[2] = target: N-terminally His-tagged S. cerevisiae Grx5 (recombinant) (S. cerevisiae) (UniProt Q02784); experiment: MST

| amount bound to anti-Grx5 immunobeads relative to Ssc1 [1] [fold] | Ka [2] [M⁻¹] | Substance |
| --- | --- | --- |
| > 4 |  | Ssq1-glutathione S-transferase (GST) fusion protein (natural protein) |
|  | 440000 | recombinant His-tagged S. cerevisiae Ssq1 (natural protein) |
